In US9988424 (DUKE UNIVERSITY, dated 2018):
Changes are numbered by the printed parent chain.

Legend:
[1] = target: T1, AE.A244 V1/V2 tags, natively deglycosylated (HIV-1); test: ELISA
T1 construct: also called AE.A244V1V2 tags Degly

Env of SHIV-BaL = Env of SHIV-BaL (SHIV); test: cell-based or functional assay
Env of B.MN virus = Env of B.MN virus (HIV-1); test: cell-based or functional assay
AE.A244 gD+ gp120 N160K = target: T2, AE.A244 gD+ gp120 N160K (HIV-1); test: ELISA
T2 construct: domain: gp120

AE.con gp140CF [2] = test: ELISA, OD405 at 10 ug/ml
A.9004SS V1/V2 tags = target: T3, A.9004SS V1/V2 tags; test: ELISA, OD405 at 10 ug/ml
T3 V1V2 tags construct: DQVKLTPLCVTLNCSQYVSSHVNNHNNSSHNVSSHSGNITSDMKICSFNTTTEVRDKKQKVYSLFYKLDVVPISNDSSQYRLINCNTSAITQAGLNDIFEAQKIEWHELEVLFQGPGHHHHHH

B.63521_V1/V2 tags = test: ELISA, OD405 at 10 ug/ml
G.con gp140CF [3] = test: ELISA, OD405 at 10 ug/ml
C.1086 gp140 = target: T4, C.1086 gp140; test: ELISA, OD405 at 10 ug/ml
T4 construct: also called C.1086gp140C

B.con gp140CF [4] = test: ELISA, OD405 at 10 ug/ml
Con 6 gp120 [5] = test: ELISA, OD405 at 10 ug/ml
B.040 gp140C = test: ELISA, OD405 at 10 ug/ml
B.62357 gp140C = target: T5, B.62357 gp140C; test: ELISA, OD405 at 10 ug/ml
T5 construct: also called B.62357 140C

B.Case A2 V1/V2 tags [6] = test: ELISA, OD405 at 10 ug/ml
D.9009SA V1/V2 tags = test: ELISA, OD405 at 10 ug/ml
B.con gp140CF [7] = target: T6, B.con gp140CF; test: ELISA, OD405
T6 construct: also called B.con.env03 gp140CF

B.Case A2 V1/V2 Tags [8] = target: T7, B.Case A2 V1/V2 Tags; test: ELISA, OD405
T7 Env construct: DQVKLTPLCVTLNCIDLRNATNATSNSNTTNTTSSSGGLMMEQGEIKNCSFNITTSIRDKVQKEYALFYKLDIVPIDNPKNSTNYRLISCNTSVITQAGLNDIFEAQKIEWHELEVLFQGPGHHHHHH

Con 6 gp120 [9] = test: ELISA, OD405
G.con gp140CF [10] = target: T8, G.con gp140CF; test: ELISA, OD405
T8 construct: also called G.con.env03 gp140CF

B. 681-7 gp140C = test: ELISA, OD405
A.9004SS V1V2 Tags = target: T9, A.9004SS V1V2 Tags; test: ELISA, OD405
T9 Env construct: T3 V1V2 tags construct

D.9009SA V1V2 Tags = target: T10, D.9009SA V1V2 Tags; test: ELISA, OD405
T10 Env construct: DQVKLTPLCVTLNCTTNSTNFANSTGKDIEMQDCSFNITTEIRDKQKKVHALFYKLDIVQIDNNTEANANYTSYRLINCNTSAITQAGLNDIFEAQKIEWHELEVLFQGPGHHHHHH

B. 684-6 gp140C = test: ELISA, OD405
B.63521_V1V2 Tags = target: T11, B.63521_V1V2 Tags; test: ELISA, OD405
T11 Env construct: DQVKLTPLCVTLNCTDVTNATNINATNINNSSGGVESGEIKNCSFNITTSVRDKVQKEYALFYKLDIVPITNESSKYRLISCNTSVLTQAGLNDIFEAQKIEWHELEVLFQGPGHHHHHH

B.63521 gp140C = test: ELISA, OD405
AE.con gp140CF [11] = target: T12, AE.con gp140CF; test: ELISA, OD405
T12 construct: also called AE.con.env03 gp140CF

B.62357 140C = target: T13, B.62357 140C; test: ELISA, OD405
T13 construct: also called B.62357 gp140C

B1: 697D (antibody, V domains shown)
VH: QVQLVQSGAEVKKPGSSVKVSCKASGGNFNTYTISWVRQAPGQGLEWMGRIIPIFGIVNPAQKFPGRVTINVDKSTNTAYMELSSLRSEDTAVYYCATSGVGLHFGYFDYWGQGTQVTVSS
VL: QSVLTQPPSVSGAPGQRVTISCTGSSSNIGAHYDVHWYQQLPGTAPKLLIYGNSNRPSGVPDRFSGSKSGTSASLAITGLQAEDEADYYCQSYDSSLSGYVFGTGTKVTVL
notes: also called mAb 697D; V2 conformational mAb 697D
**Q.** Which “fold decrease of binding against the glycosylated protein” value [1] does the source give for B1 here?
**A.** Its value is 6 fold.

B2: CH59 (antibody, V domains shown)
VH: EVQLVESGGGLVQPGRSLRLSCAASGFTFDDGAMHWVRQAPGKGLEWVSGISWNSNIIAYADSVKGRFTISRDNAKNSLYLEMNSLRVEDTALYYCAKDSPRGELPLNYWGQGTLVTVSS
VL: SYELTQPPSVSVSPGQTARITCSGDALPKNYAYWYQQKSGQAPVLVIYEDSKRPSGIPERFSGSSSGTMATLTISGAQVEDEADYYCYSTDSSGNHRVFGGGTKLTVL
notes: also called mAb CH59
**Q.** How did the “EC50, neutralization of SHIV-BaL” value (Env of SHIV-BaL) turn out when B2 was run?
**A.** The value was greater than 50 µg/mL.

**Q.** What about the “EC50, neutralization of B.MN” value (Env of B.MN virus) of the same binder?
**A.** The value was greater than 50 µg/mL.

**Q.** And the EC50 (AE.A244 gD+ gp120 N160K)?
**A.** The EC50 was 0.03 nM.

B3: CH59 reverted unmutated ancestor antibody (antibody, V domains shown)
VH: B2 VH with G32Y, N56G, I57S, A59G, E82Q, V88A, L107F, N108D
VL: B2 VL with N30K
notes: also called CH59 RUA; CH59_RUA
**Q.** Does B3 bind (AE.con gp140CF [2])?
**A.** Result: no binding (tested: 10 ug/ml)

**Q.** Does B3 bind (A.9004SS V1/V2 tags)?
**A.** Result: no binding (tested: 10 ug/ml)

**Q.** Does B3 bind (B.63521_V1/V2 tags)?
**A.** Result: no binding (tested: 10 ug/ml)

**Q.** Does B3 bind (G.con gp140CF [3])?
**A.** Result: no binding (tested: 10 ug/ml)

**Q.** Does B3 bind (C.1086 gp140)?
**A.** Result: no binding (tested: 10 ug/ml)

**Q.** Does B3 bind (B.con gp140CF [4])?
**A.** Result: no binding (tested: 10 ug/ml)

**Q.** Does B3 bind (Con 6 gp120 [5])?
**A.** Result: no binding (tested: 10 ug/ml)

**Q.** Does B3 bind (B.040 gp140C)?
**A.** Result: no binding (tested: 10 ug/ml)

**Q.** Does B3 bind (B.62357 gp140C)?
**A.** Result: no binding (tested: 10 ug/ml)

**Q.** Does B3 bind (B.Case A2 V1/V2 tags [6])?
**A.** Result: no binding (tested: 10 ug/ml)

**Q.** Does B3 bind (D.9009SA V1/V2 tags)?
**A.** Result: no binding (tested: 10 ug/ml)

B4: PG16 reverted unmutated ancestor antibody (antibody, V domains shown)
VH: QVQLVESGGGVVQPGRSLRLSCAASGFTFSSYGMHWVRQAPGKGLEWVAVISYDGSNKYYADSVKGRFTISRDNSKNTLYLQMNSLRAEDTAVYYCAREAGGPIWHDDVKYYDFNDGYYYYYYMDVWGKGTTVTVSS
VL: QSALTQPASVSGSPGQSITISCTGTSSDVGSYNLVSWYQQHPGKAPKLMIYEVSKRPSGVSNRFSGSKSGNTASLTISGLQAEDEADYYCCSLTDRSHRIFGGGTKLTVL
notes: also called PG16 RUA; PG16_RUA
**Q.** Does B4 bind (B.con gp140CF [7])?
**A.** Result: no binding (tested: 10 ug/ml)

**Q.** Does B4 bind (B.Case A2 V1/V2 Tags [8])?
**A.** Result: no binding (tested: 10 ug/ml)

**Q.** Does B4 bind (Con 6 gp120 [9])?
**A.** Result: no binding (tested: 10 ug/ml)

**Q.** Does B4 bind (G.con gp140CF [10])?
**A.** Result: no binding (tested: 10 ug/ml)

**Q.** Does B4 bind (B. 681-7 gp140C)?
**A.** Result: no binding (tested: 10 ug/ml)

**Q.** Does B4 bind (A.9004SS V1V2 Tags)?
**A.** Result: no binding (tested: 10 ug/ml)

**Q.** Does B4 bind (D.9009SA V1V2 Tags)?
**A.** Result: no binding (tested: 10 ug/ml)

**Q.** Does B4 bind (B. 684-6 gp140C)?
**A.** Result: no binding (tested: 10 ug/ml)

**Q.** Does B4 bind (B.63521_V1V2 Tags)?
**A.** Result: no binding (tested: 10 ug/ml)

**Q.** Does B4 bind (B.63521 gp140C)?
**A.** Result: no binding (tested: 10 ug/ml)

**Q.** Does B4 bind (AE.con gp140CF [11])?
**A.** Result: no binding (tested: 10 ug/ml)

**Q.** Does B4 bind (B.62357 140C)?
**A.** Result: no binding (tested: 10 ug/ml)
